Results as given in the DeepSol protein solubility set.

Experiment: soluble on expression in E. coli; label from the status in PepcDB or PDB records

| Sequence | soluble on expression in E. coli |
| --- | --- |
| MGSDKIHHHHHHMTYDFLIIGGGIAGTSAGAALSRLGTTCLLEAESALAYHASGRSAALFEPNYGHPVTVDLSHASATALRTLGGGVLSPRGLLILAGPGEDAALARDIKTMDLAEISIADAQDMIPILNADHITRAAHHAAAWDIDTDRMVQHYARQIRTNGAVETGATVLGLTKTPQGWTVETRDHSFHARIIVNAAGAWADDIARMAGIAPIGLTPKRRSMARMPAPRGHDVSAWPMIIGAGESWYAKPDAGAWLVSPAEEDPAAPHDAYADDMVLAEGIARYQPFVTEEVTRVTSSWAGLRTFAPDRCLVIGPDRTDPSVLWFAGQGGYGFQTAPAASQLLADLVSGAPSTLDPATVKALSPSRF | not soluble |
| GMQKPHLLITSAGRRAKLVEYFVKEFKTGRVSTADCSPLASALYMADQHYIVPKIDEVEYIDHLLTLCQDEGVTALLTLIDPELGLLAQATERFQAIGVTVIVSPYAACELCFDKYTMYEYCLRQGIAHARTYATMASFEEALAAGEVQLPVFVKPRNGSASIEVRRVETVEEVEQLFSKNTDLIVQELLVGQELGVDAYVDLISGKVTSIFIKEKLTMRAGETDKSRSVLRDDVFELVEHVLDGSGLVGPLDFDLFDVAGTLYLSEINPRFGGGYPHAYECGVNFPAQLYRNLMHEINVPQIGQYLDDIYMLKHDTVTLISAAELQKIKR | soluble |
| MGSDKIHHHHHHMKLLLTSGGIQNDSQRRALVDLLGKPIEEAHALCIPTAVYGMKEGPYHAYLFITGTGSTPMCELGFQSVGVLELTALPILDESLWVPLVEQADVLLVNGGDPLFLNYWMKKSGLADRLPSLKAVYVGLSAGSMVLTPRIGHAFVEWTAPHTTTDETLGLVEFSIFPHLDHELLPENTLDEAVKWAADLTGPSYAIDDQTAIQVVDGVVKVISEGHWKRFD | not soluble |
| SRFADAVLDQYIGSIHSLCKDQHGCRFLQKQLDILGSKAADAIFEETKDYTVELMTDSFGNYLIQKLLEEVTTEQRIVLTKISSPHFVEISLNPHGTRALQKLIECIKTDEEAQIVVDSLRPYTVQLSKDLNGNHVIQKCLQRLKPENFQFIFDAISDSCIDIATHRHGCCVLQRCLDHGTTEQCDNLCDKLLALVDKLTLDPFGNYVVQYIITKEAEKNKYDYTHKIVHLLKPRAIELSIHKFGSNVIEKILKTAIVSEPMILEILNNGGETGIQSLLNDSYGNYVLQTALDISHKQNDYLYKRLSEIVAPLLVGPIRNTPHGKRIIGMLHLDS | soluble |
| HSHDWLTYPAGIHAKTVTGKPLVVHVHATDFDRSRGNVNPQVFAIEKDGMNHADHIITVSNLTRRTVIEKYGQHPDKVTTVHNAVEPLPASILALPDKRGVKDKVITFLGRITMQKGPEYFVEAAAKVLERTSDVRFVMAGNGDMMDAMIRLAARHKIADRFHFTGFMKGEQVYEVFKASDVYVMPSVSEPFGISPLEAMQCGVPSIISKQSGCAEILDYAIKVDYWDIDAMADAMHALIAYPELHTFLRDEGLREVNNIKWETAGQKVRDIYNKVTGR | not soluble |
| SDVLASYSIFQELQLVHDTGYFSALPSLEETWQQTCLELERYLQTEPRRISETFGEDLDCFLHASPPPCIEESFRRLDPLLLPVEAAICEKSSAVDILLSRDKLLSETCLSLQPASSSLDSYTAVNQAQLNAVTSLTPPSSPELSRHLVKTSQTLSAVDGTVTLKLVAKKAALSSVKVRSLISAHGRDVSGVLHEAMSSRGTTGNTQVQSPSNATTATGVFPGLTILPST | soluble |
| MSLNKKMIFFDIDGTIVDEKTHVIPEGTIAAIKKARSNGHLVFINTGRTFFNVPDSIRQIGFDGYVCGCGTYIHINGQTLLEKSISHKRCVEIVEKLRECKLDALLEGQKDFFFDQREPVSEKTLELKSKFGKRGYDVSKSWDDSDIVFDKFVIWTRKESNLEAFKSHISNDFDYIDREDEEGEFGEIVLKGYSKATGIKFLQDYFNIPIEDCYALGDSLNDLPMLQYVPNSIAMGNSSKGLFDLVAFVTKDIMEDGIEYALKHYNIIEGHHHHHH | soluble |
| DALESKKINEALLKQGEALINQLNDRARADTVRYAEEVVKTAAERVKEASQNLTDYRIANGVFDLKAQSEVQMGLVSKLQDELIVIQTQLDQVKAVTPENPQIPGLQAREQSLRKEIDQQLRAISGGGHSSLSNQAAEYQRVYLENQLAEQQLAAAMTSLESAKVEADRQQLYLEVISQPSLPDLAHEPKR | soluble |
| MSDPLLQLISTGLGLWIRSRCDQVGDLDLTLQGSSLGLMRGRLQGAVLSARDVRFEGLPLHHAEISSGPIQLDLTWLRPGRMLALKDPFQVKGTVSMPGQPLGDALLSERWRELGDWIAEQLMGLKPLGQLRIENDELELVASVAAQRDPIRKRFRLRAEAGTVVLSASDSPETRAVLPMDPAITITDATLGAGLLTLQGHAIVTPE | not soluble |
| MGLVIYDTLARRKVPFEPAVPGHVGIYVCGPTVYADPHLGHARGPVVYDVLRRYLLHKGYKVRFVSNITDVGHLTDDADEGEDKIVRRAKLERLEPMEVAEKYTWSYFDAMQALNVLRPSIAPRASGHIPEMLELTERLLARGVAYERKGSVYFRVRSFPEYGKLSGKRLEELRAGARVEVREEKEDPLDFALWKAAEPGHIMRWKSPWGEGYPGWHIECTAMSLKYLGEGFDLHAGGIDLQFPHHECEIAQAEAAGFRFARHWMHHNHVLLEGEKMAKSTGNLVLLHDLLEAHEPMALRFYLLQTHYRSPMDFTWEGLESAKRGYGRLLHAYREVRGRKKTAPPGTTPELERALDALEKAFMEAIEDDLSTPEALAALFAFLPELHKLLPEAKAESLARAEAVFHTLGEGILGLFPERVLEERVSGPLLEGLIALLLELREEARRAKDYEKSDLIRERLRALGVIVEDTKEGPRWRLER | soluble |
| MGSDKIHHHHHHMDVDLGKLFFCGFNDFNEEVKEIIRKYRPTGILIYPGVLSKEYLLMDFMSFLSKEGDFLISSDHEGGQLEVLKYVPSSPGNLAFGKNSPDVTYRYSRVAGKIMEIVGLNMVFAPVLDLLSEESSSVIDIRSYGSDPKIVAEHGARACEGYLEGGVIPCIKHFPGHGKAREDSHLTLPVVDAPFEKLWEEDLLPFRKVLEREKKVTVMTAHVRYSSIDSLPATLSEKIITDVLREKIGFDGLVISDAMEMSAVSNNFSVEEIVSLFLNAGGNMILLGDYRNLPVYYETLVKLLEDGKVQKDKVERSIRTVEKYLAFAKKNSGVGFLADVSMKAVEFLGFEKIDHTSEVTLLVPSSENLSQADTTGGDYDQIPEIVSRFFEVENVVRYTVEDGPEFVEGDLIFDFVADIPNEKALKAHLSLPAEKTVYFVLRNPFDVRYFEGRKIVVTRSTKPISIYKSLEHFLGRCDS | not soluble |
| MSLENDFPLKGKTVLVTRNKAQAASFQQKVEALGGKAVLTSLITFRRALPNDVAEQVREDLAAPGWLVFTSVNGADFFFSYLKENQLILPAHKKIAAVGEKTARRLKMHNVSVDVMPQEYIAEQLADALKQHAEPGETITVMKGNLSRDVIKQELVPLGFEVKEWVLYETIPDEEGIEALKDAAGQYSFDYVTFTSSSTVHTFMHVLGEELKKWKANGTACISIGPLTNDALLTYGITSHTPDTFTIDGMLELMCSMSREEERIEGHHHHHH | soluble |
| MGSDKIHHHHHHMPGAYAHLTMVNLVKEPDRLEKQGFPPEAIVSILDYFRFCELGAVSPDYPYLDIAHSSAGQWADRMHYQRTGDMIKAGVEWIRRLDGASRQKAFSWLLGYTSHVVTDTTIHPVIELKVGEYQKNKDKHRICEMHQDAYIFQRLNLGEIGLAEHLDSGIWSCCDKPGSGKLDSVITRTWQSMLETCYAGACQTDPPLIDNWHGAFKFVVDKAEEGHALPPFARHVAANLGLTYPAVADLDPQYLESLATPLEAMSYDAIFDRALENVLATGSLIAKAVFQNDNSYATALVNCNLDTGKDDQGNHIYWKKGVS | not soluble |
| MSNEYDEYIANHTDPVKAINWNVIPDEKDLEVWDRLTGNFWLPEKIPVSNDIQSWNKMTPQEQLATMRVFTGLTLLDTIQGTVGAISLLPDAETMHEEAVYTNIAFMESVHAKSYSNIFMTLASTPQINEAFRWSEENENLQRKAKIIMSYYNGDDPLKKKVASTLLESFLFYSGFYLPMYLSSRAKLTNTADIIRLIIRDESVHGYYIGYKYQQGVKKLSEAEQEEYKAYTFDLMYDLYENEIEYTEDIYDDLGWTEDVKRFLRYNANKALNNLGYEGLFPTDETKVSPAILSSLSPNADENHDFFSGSGSSYVIGKAEDTTDDDWDF | soluble |
